Experimental data as given in IntAct's records for PubMed 21525010.

B1: Invasin IpaA (Shigella flexneri), P18010 (parent)
chain: MHNVNNTQAPTFLYKATSPSSTEYSELKSKISDIHSSQTSLKTPASVSEKENFATSFNQKCLDFLFSSSGKEDVLRSIYSNSMNAYAKSEILEFSNVLYSLVHQNGLNFENEKGLQKIVAQYSELIIKDKLSQDSAFGPWSAKNKKLHQLRQNIEHRLALLAQQHTSGEALSLGQKLLNTEVSSFIKNNILAELKLSNETVSSLKLDDLVDAQAKLAFDSLRNQRKNTIDSKGFGIGKLSRDLNTVAVFPELLRKVLNDILEDIKDSHPIQDGLPTPPEDMPDGGPTPGANEKTSQPVIHYHINNDNRTYDNRVFDNRVYDNSYHENPENDAQSPTSQTNDLLSRNGNSLLNPQRALVQKVTSVLPHSISDTVQTFANNSALEKVFNHTPDNSDGIGSDLLTTSSQERSANNSLSRGHRPLNIQNSSTTPPLHPEGVTSSNDNSSDTTKSSASLSHRVASQINKFNSNTDSKVLQTDFLSRNGDTYLTRETIFEASKKVTNSLSNLISLIGTKSGTQERELQEKSKDITKSTTEHRINNKLKVTDANIRNYVTETNADTIDKNHAIYEKAKEVSSALSKVLSKIDDTSAELLTDDISDLKNNNDITAENNNIYKAAKDVTTSLSKVLKNINKD

Variants of: B1
Details: with vinc_human VCL

Row | Variant | effect of a mutation on the interaction
1 | V499E;L503Q | disrupting interaction

Variants of: B1
Details: with vinc_human VCL
Remark: another data set of the same source

Row | Variant | effect of a mutation on the interaction
2 | A495K | decreasing interaction
